Assay results from patent US20230212549A1, “COMPOUNDS COMPRISING A […] LIGAND AND USE THEREOF” (priority 2021, published 2023).
Bridge positions count the residues as written; N and C are the ends.

Experiments:
Assay in all cases: cell-based or functional assay
[1] = target: Activated Protein C, P04070
[2] = target: T1, COX1(h) (human), P23219
T1 chain: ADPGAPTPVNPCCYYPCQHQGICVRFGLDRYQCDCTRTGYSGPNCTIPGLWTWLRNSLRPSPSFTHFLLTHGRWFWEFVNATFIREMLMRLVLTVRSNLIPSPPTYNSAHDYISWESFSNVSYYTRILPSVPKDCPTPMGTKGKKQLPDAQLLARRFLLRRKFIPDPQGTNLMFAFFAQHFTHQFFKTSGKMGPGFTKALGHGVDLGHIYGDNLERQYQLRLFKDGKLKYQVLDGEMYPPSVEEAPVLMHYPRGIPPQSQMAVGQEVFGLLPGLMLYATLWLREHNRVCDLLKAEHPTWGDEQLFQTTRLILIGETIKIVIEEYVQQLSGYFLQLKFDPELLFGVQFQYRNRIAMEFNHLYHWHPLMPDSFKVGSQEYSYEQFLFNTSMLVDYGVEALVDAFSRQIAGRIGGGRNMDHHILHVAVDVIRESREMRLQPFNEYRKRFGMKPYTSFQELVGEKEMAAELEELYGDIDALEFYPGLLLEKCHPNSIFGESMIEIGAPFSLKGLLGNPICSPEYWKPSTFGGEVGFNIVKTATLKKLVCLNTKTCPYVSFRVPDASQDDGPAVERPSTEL

[3] = target: T2, Caspase-8, Q14790
T2 chain: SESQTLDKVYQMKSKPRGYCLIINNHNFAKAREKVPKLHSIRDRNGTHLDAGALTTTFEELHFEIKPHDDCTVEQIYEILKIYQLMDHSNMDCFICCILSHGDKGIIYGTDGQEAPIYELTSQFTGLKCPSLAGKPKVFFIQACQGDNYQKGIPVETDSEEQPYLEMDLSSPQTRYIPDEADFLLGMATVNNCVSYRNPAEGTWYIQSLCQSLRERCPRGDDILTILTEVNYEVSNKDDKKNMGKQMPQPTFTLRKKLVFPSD

[4] = target: Cathepsin B, P07858
[5] = target: Cathepsin L, P07711
Cathepsin L, P07711, sequence (P07711 114-333 limits assumed): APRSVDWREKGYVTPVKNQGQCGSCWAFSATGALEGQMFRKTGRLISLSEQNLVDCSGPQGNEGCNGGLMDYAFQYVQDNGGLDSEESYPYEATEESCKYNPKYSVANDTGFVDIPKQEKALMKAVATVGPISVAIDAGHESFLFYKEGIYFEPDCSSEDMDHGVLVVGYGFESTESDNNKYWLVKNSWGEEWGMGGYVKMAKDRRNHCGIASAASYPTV

[6] = target: T3, Matrix metalloprotease 1, P03956
T3 chain: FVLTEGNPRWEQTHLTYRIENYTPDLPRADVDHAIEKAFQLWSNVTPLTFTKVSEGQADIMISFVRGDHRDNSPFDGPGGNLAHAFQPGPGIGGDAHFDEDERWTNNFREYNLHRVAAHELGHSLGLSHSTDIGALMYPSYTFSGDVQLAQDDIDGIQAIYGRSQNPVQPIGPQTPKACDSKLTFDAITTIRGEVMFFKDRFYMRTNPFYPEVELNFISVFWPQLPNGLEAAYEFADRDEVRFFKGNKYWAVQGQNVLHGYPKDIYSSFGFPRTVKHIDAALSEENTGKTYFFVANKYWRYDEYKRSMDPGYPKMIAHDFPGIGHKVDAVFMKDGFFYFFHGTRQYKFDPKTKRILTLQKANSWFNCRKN

[7] = target: T4, Matrix metalloprotease 2, P08253
T4 chain: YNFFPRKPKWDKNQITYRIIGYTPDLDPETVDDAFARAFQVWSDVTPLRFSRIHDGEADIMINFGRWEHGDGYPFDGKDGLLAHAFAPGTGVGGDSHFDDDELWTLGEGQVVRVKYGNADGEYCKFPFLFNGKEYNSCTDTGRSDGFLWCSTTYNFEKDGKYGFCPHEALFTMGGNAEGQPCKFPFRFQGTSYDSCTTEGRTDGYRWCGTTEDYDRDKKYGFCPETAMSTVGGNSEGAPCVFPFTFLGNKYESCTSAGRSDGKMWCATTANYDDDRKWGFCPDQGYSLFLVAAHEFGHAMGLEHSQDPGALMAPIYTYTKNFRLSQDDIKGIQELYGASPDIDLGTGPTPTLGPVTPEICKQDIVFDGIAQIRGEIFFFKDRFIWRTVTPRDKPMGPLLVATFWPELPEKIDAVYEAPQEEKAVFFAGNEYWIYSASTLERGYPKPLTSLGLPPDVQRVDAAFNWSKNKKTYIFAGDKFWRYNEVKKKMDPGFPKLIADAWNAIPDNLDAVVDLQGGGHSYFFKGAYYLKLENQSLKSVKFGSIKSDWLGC

[8] = target: T5, Ubiquitin carboxyl-terminal hydrolase 2, O75604
T5 chain: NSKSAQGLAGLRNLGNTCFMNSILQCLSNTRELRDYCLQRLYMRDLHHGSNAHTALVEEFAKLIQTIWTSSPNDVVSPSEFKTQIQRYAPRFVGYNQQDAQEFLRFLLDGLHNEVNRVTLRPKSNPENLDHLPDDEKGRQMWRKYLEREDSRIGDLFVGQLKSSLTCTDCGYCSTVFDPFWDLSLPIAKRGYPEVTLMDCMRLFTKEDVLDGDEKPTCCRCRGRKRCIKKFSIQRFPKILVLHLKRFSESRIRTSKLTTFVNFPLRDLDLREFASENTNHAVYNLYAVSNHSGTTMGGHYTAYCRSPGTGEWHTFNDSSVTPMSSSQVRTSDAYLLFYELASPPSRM

[9] = target: Ubiquitin carboxyl-terminal hydrolase 7, Q93009
Ubiquitin carboxyl-terminal hydrolase 7, Q93009, sequence (Q93009 whole entry): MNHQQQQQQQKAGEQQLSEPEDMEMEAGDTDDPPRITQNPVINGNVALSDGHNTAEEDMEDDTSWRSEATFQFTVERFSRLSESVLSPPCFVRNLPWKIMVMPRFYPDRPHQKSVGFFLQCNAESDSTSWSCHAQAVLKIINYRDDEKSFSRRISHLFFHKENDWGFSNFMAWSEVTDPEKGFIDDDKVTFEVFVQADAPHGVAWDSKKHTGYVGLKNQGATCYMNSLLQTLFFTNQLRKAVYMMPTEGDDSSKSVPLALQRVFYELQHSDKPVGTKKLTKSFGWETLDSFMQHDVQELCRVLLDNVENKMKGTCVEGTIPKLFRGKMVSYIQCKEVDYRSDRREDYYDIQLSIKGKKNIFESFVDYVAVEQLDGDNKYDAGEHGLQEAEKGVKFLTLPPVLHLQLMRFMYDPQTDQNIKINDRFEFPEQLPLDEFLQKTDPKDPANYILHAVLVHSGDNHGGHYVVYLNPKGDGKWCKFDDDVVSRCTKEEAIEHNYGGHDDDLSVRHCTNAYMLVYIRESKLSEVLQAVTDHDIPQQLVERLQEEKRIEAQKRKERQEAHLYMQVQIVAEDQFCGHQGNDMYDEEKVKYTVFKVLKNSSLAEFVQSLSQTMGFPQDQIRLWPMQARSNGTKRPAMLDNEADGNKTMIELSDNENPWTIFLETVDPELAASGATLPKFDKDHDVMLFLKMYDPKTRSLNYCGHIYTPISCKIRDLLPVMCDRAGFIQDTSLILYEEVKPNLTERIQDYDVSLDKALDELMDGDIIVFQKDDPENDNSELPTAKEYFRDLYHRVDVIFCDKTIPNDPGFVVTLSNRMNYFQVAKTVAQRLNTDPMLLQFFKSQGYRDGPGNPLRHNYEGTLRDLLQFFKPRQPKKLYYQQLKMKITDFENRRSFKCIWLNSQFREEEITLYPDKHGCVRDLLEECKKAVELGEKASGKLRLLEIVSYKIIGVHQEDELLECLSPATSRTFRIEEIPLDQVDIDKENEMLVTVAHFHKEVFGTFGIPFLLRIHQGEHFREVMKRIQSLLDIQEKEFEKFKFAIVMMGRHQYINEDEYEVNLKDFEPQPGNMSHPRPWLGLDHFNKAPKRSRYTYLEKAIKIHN

Binder	Percentage inhibition (%) at 1 µM [1] [%]	Percentage inhibition (%) at 10 µM [1] [%]	% inhibition of control enzyme activity, compound at 10 µM [2] [%]	Percentage inhibition (%) at 1 µM [3] [%]	Percentage inhibition (%) at 10 µM [3] [%]	Percentage inhibition (%) at 1 µM [4] [%]	Percentage inhibition (%) at 10 µM [4] [%]	Percentage inhibition (%) at 1 µM [5] [%]	Percentage inhibition (%) at 10 µM [5] [%]	Percentage inhibition (%) at 1 µM [6] [%]	Percentage inhibition (%) at 10 µM [6] [%]	Percentage inhibition (%) at 1 µM [7] [%]	Percentage inhibition (%) at 10 µM [7] [%]	Percentage inhibition (%) at 1 µM [8] [%]	Percentage inhibition (%) at 10 µM [8] [%]	Percentage inhibition (%) at 1 µM [9] [%]	Percentage inhibition (%) at 10 µM [9] [%]
Hex-CPPTQFCD-NH2 (bridge 1-7; not fully specified (bridges); printed as Hex-[Cys(tMeBn(DOTA-PP))-Pro-Pro-Thr-Gln-Phe-Cys]-Asp-NH2) [Hex-[Cys(tMeBn(DOTA-PP))-Pro-Pro-Thr-Gln-Phe-Cys]-Asp-NH2]	5	8	10	0	0	26	36	3	6	-1	2	3	3	3	7	5	5
Hex-CPPTQFC-OH (bridge 1-7; not fully specified (bridges); printed as Hex-[Cys(tMeBn(DOTA-AET))-Pro-Pro-Thr-Gln-Phe-Cys]-OH) [Hex-[Cys(tMeBn(DOTA-AET))-Pro-Pro-Thr-Gln-Phe-Cys]-OH]	-11	1	8	0	-3	1	2	0	-6	1	-7	-1	-2	0	-1	1	1
